Results taken from patent US10513547B2, “Peptides and combination of peptides and scaffolds thereof for use in immunotherapy against colorectal carcinoma (CRC) and other cancers” (Immatics Biotechnologies GmbH, priority 2015, dated 2019).

molecular target: HLA-A*02:01 (Homo sapiens, UniProt P04439, D140Y/D185E/D98H/E176V/E277Q/G131W/G231S/I119V/I121R/I166T/I218V/L300P/L318F/N151K/N90K/P208A/P217A/Q86G/Q94H/R138H/R169H/T345S); assay: MHC binding assay (UV-ligand exchange, beta2m ELISA, peptide exchange yield); details: binding to HLA-A*02:01
Text: Candidate peptides for T cell based therapies according to the present invention were further tested for their MHC binding capacity (affinity). The individual peptide-MHC complexes were produced by UV-ligand exchange, where a UV-sensitive peptide is cleaved upon UV-irradiation, and exchanged with the peptide of interest as analyzed. Only peptide candidates that can effectively bind and stabilize the peptide-receptive MHC molecules prevent dissociation of the MHC complexes. To determine the yield of the exchange reaction, an ELISA was performed based on the detection of the light chain ([…]) of stabilized MHC complexes. The assay was performed as generally described in Rodenko et al. (Rodenko et al., 2006).
96 well MAXISorp plates (NUNC) were coated over night with 2 ug/ml streptavidin in PBS at room temperature, washed 4× and blocked for 1 h at 37° C. in 2% BSA containing blocking buffer. Refolded HLA-A*02:01/MLA-001 monomers served as standards, covering the range of 15-500 ng/ml. Peptide-MHC monomers of the UV-exchange reaction were diluted 100 fold in blocking buffer. Samples were incubated for 1 h at 37° C., washed four times, incubated with 2 ug/ml HRP conjugated anti-β2m for 1 h at 37° C., washed again and detected with TMB solution that is stopped with […]. Absorption was measured at 450 nm. Candidate peptides that show a high exchange yield (preferably higher than 50%, most preferred higher than 75%) are generally preferred for a generation and production of antibodies or fragments thereof, and/or T cell receptors or fragments thereof, as they show sufficient avidity to the MHC molecules and prevent dissociation of the MHC complexes.

Substance	Peptide exchange (MHC class I binding score, peptide exchange yield)
70 (MISELEVRL; listed as Homo sapiens) [compound 70]	“+++” (≥50 = +++)
153 (ILFSEDSTKLFV; listed as Homo sapiens) [compound 153]	“+++” (≥50 = +++)
158 (GLLDPSVFHV; listed as Homo sapiens) [compound 158]	“+++” (≥50 = +++)
166 (GLLEARGILGL; listed as Homo sapiens) [compound 166]	“+++” (≥50 = +++)
145 (LLLEVVKQV; listed as Homo sapiens) [compound 145]	“+++” (≥50 = +++)
169 (YLAHFIEGL; listed as Homo sapiens) [compound 169]	“+++” (≥50 = +++)
104 (ILLTIKDDTIYL; listed as Homo sapiens) [compound 104]	“+++” (≥50 = +++)
174 (ILLDDNMQIRL; listed as Homo sapiens) [compound 174]	“++++” (≥75% = ++++)
110 (LLGELPRLLLL; listed as Homo sapiens) [compound 110]	“+++” (≥50 = +++)
48 (FLDASDPAL; listed as Homo sapiens) [compound 48]	“++” (≥20% = ++)
154 (KLPSETIFVGC; listed as Homo sapiens) [compound 154]	“+++” (≥50 = +++)
73 (YLFDIAVSM; listed as Homo sapiens) [compound 73]	“+++” (≥50 = +++)
182 (SLNKWIFTV; listed as Homo sapiens) [compound 182]	“++++” (≥75% = ++++)
115 (SLFDVSHML; listed as Homo sapiens) [compound 115]	“+++” (≥50 = +++)
54 (ALLNGEYLLAA; listed as Homo sapiens) [compound 54]	“+++” (≥50 = +++)
109 (ALDGDQMEL; listed as Homo sapiens) [compound 109]	“++” (≥20% = ++)
86 (KVFPGKISV; listed as Homo sapiens) [compound 86]	“++” (≥20% = ++)
6 (FLAELPGSLSL; listed as Homo sapiens) [compound 6]	“+++” (≥50 = +++)
179 (RLLSPLSSA; listed as Homo sapiens) [compound 179]	“+++” (≥50 = +++)
53 (FLLGSEIKL; listed as Homo sapiens) [compound 53]	“+++” (≥50 = +++)
187 (GLHNVVYGI; listed as Homo sapiens) [compound 187]	“+++” (≥50 = +++)
172 (LLLDTVTMQV; listed as Homo sapiens) [compound 172]	“+++” (≥50 = +++)
163 (RLLHEVQEL; listed as Homo sapiens) [compound 163]	“+++” (≥50 = +++)
121 (SLAPNIISQL; listed as Homo sapiens) [compound 121]	“+++” (≥50 = +++)
68 (SILQFVHMV; listed as Homo sapiens) [compound 68]	“+++” (≥50 = +++)

Results, then the substance that gave them:

Peptide exchange (MHC class I binding score, peptide exchange yield)	Substance
“++” (≥20% = ++)	178 (YLFREPATI; listed as Homo sapiens) [compound 178]
“+++” (≥50 = +++)	90 (GLLKPGLNVVL; listed as Homo sapiens) [compound 90]
“++” (≥20% = ++)	171 (RLQETEGMVAV; listed as Homo sapiens) [compound 171]
“++” (≥20% = ++)	60 (VLDEDEPRFL; listed as Homo sapiens) [compound 60]
“++++” (≥75% = ++++)	25 (SLADRLIGV; listed as Homo sapiens) [compound 25]
“++” (≥20% = ++)	41 (ILDDSFKLL; listed as Homo sapiens) [compound 41]
“++” (≥20% = ++)	85 (ILHDINSDGVL; listed as Homo sapiens) [compound 85]
“+++” (≥50 = +++)	143 (KLSDVWKEL; listed as Homo sapiens) [compound 143]
“+++” (≥50 = +++)	162 (KLMDYIDEL; listed as Homo sapiens) [compound 162]
“+++” (≥50 = +++)	188 (FLVDGPRVQL; listed as Homo sapiens) [compound 188]
“++” (≥20% = ++)	112 (KLGQVLIYL; listed as Homo sapiens) [compound 112]
“+++” (≥50 = +++)	122 (SLMGMVLKL; listed as Homo sapiens) [compound 122]
“+++” (≥50 = +++)	186 (KMSEKILLL; listed as Homo sapiens) [compound 186]
“+++” (≥50 = +++)	105 (YALDLSTFL; listed as Homo sapiens) [compound 105]
“++” (≥20% = ++)	78 (ALDPELLLL; listed as Homo sapiens) [compound 78]
“++” (≥20% = ++)	40 (ALSNVIHKV; listed as Homo sapiens) [compound 40]
“+++” (≥50 = +++)	91 (TVDVATPSV; listed as Homo sapiens) [compound 91]
“+++” (≥50 = +++)	4 (RLAELTVDEFL; listed as Homo sapiens) [compound 4]

Peptide exchange (MHC class I binding score, peptide exchange yield)	Substance
“+++” (≥50 = +++)	34 (ILLEKSVSV; listed as Homo sapiens) [compound 34]
“++” (≥20% = ++)	52 (ALDSSNSMQTI; listed as Homo sapiens) [compound 52]
“++” (≥20% = ++)	14 (FLDKPEDVLL; listed as Homo sapiens) [compound 14]
“+++” (≥50 = +++)	170 (ALAGGITMV; listed as Homo sapiens) [compound 170]
“+” (≥10% = +)	114 (TAVGHALVL; listed as Homo sapiens) [compound 114]
“++” (≥20% = ++)	75 (EMIENIQSV; listed as Homo sapiens) [compound 75]
“+++” (≥50 = +++)	155 (RLLGEEVVRV; listed as Homo sapiens) [compound 155]
“+++” (≥50 = +++)	84 (SMVEDITGLRL; listed as Homo sapiens) [compound 84]
“+++” (≥50 = +++)	139 (VLLNEILEQV; listed as Homo sapiens) [compound 139]
“+++” (≥50 = +++)	106 (SLISEKILL; listed as Homo sapiens) [compound 106]
“+++” (≥50 = +++)	100 (SLDDFLATA; listed as Homo sapiens) [compound 100]
“+++” (≥50 = +++)	107 (ALLGGGPYML; listed as Homo sapiens) [compound 107]
“++++” (≥75% = ++++)	165 (RLLDFPEAMVL; listed as Homo sapiens) [compound 165]
“++++″ (≥75% = ++++)	191 (QLFSEIHNL; listed as Homo sapiens) [compound 191]
“+++” (≥50 = +++)	160 (KLLEFDQLQL; listed as Homo sapiens) [compound 160]
“+++” (≥50 = +++)	189 (AISEVIGKITA; listed as Homo sapiens) [compound 189]
“+++” (≥50 = +++)	46 (GLDDRYSLV; listed as Homo sapiens) [compound 46]
“++” (≥20% = ++)	119 (ILYQTVTGL; listed as Homo sapiens) [compound 119]
